Measured values reported in paper PMC6599204, “DNA requirement in FANCD2 deubiquitination by USP1-UAF1-RAD51AP1 in the Fanconi anemia DNA damage response” (Nature Communications, 2019).

Molecular target: T1, FANCI (human, UniProt Q9NVI1 1-1328)
T1 construct: human FANCI
T1 sequence (looked up): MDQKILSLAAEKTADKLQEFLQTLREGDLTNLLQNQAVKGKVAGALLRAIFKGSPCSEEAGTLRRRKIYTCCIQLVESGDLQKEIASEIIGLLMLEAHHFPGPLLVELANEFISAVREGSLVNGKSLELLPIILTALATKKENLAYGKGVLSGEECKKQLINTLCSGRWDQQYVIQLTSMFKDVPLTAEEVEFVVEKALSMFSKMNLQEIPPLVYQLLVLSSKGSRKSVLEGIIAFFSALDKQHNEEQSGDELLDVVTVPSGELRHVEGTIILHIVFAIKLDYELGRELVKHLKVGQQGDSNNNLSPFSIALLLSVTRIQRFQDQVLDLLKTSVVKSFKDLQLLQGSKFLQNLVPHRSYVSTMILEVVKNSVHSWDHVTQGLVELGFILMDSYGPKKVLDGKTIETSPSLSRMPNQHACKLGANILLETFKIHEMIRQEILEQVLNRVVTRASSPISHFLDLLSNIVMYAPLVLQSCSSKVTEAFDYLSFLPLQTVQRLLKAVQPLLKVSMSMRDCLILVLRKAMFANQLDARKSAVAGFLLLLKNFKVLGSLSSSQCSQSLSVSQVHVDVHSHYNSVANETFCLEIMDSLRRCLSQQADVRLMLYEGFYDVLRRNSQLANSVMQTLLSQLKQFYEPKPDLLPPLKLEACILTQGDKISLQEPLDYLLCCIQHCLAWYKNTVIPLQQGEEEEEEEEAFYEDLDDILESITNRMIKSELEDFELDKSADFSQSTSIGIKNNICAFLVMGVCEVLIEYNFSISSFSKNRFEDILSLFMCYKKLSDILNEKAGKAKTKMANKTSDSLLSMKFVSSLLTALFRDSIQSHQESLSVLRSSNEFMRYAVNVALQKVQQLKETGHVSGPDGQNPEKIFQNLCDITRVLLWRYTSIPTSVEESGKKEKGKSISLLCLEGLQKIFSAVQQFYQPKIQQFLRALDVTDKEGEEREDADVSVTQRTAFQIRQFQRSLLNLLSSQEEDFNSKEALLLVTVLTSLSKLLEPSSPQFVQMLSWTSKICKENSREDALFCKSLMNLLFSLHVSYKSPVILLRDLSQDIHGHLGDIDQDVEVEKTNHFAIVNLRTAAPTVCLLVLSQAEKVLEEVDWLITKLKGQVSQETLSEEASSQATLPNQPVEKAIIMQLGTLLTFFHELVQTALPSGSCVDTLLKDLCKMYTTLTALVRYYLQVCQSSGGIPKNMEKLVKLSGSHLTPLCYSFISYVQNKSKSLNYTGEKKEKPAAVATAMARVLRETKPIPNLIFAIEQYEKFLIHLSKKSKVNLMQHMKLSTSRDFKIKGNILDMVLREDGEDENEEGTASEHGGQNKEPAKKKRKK
Test: pull-down; same procedure as for RAD51AP1, but Strep-Tactin resin captured the complexes via the Strep tag on UAF1; USP1 or FANCI as the other protein; SDS-PAGE, Coomassie Blue
Conditions: both partners purified

B1: UAF1 (natural protein)
chain: not shown
notes: human UAF1 (isoform 1), full-length; also called UAF1 (WT); UAF1 (FL); not shown: Strep-II, C-terminal, kept
  binding result: binds
